From patent US20200277374A1 (Alector, published 2020)

Experiments:
N81A = biological target: T1, N81A (human, UniProt Q9Y286); assay: flow cytometry on HEK-293T cells expressing the mutant; mean % of wild-type signal (range of duplicates)
T1 construct: clone of the siglec-7 mutation library; also called Siglec-7 N81A
Description: (§1) Shotgun mutagenesis epitope mapping of anti-siglec-7 antibodies was performed using an alanine-scanning library for the siglec-7 protein. […] Each of residues 19 to 353 was mutated, representing the siglec-7 extracellular domain, most to alanine, while alanine codons were mutated to serine. In total, 335 siglec-7 mutant expression constructs were generated, sequences confirmed, and arrayed into a 384-well plate, one mutant per well.
(§2) Cells were then incubated with MAbs diluted in 10% o normal goat serum (NGS) (Sigma-Aldrich, St. Louis, Mo.). Prior to library screening, primary MAb concentrations were determined using an independent immunofluorescence titration curve against cells expressing wild-type siglec-7 to ensure that signals were within the linear range of detection. MAbs were detected using 3.75 μg/ml AlexaFluor488-conjugated secondary antibody (Jackson immunoResearch Laboratories, Westgrove, Pa.) in 10% NGS. Cells were washed twice with PBS−/− and resuspended in Cellstripper (Cellgro, Manassas, Va.) with 0.1% BSA (Sigma-Aldrich, St. Louis, Mo.). Mean cellular fluorescence was detected using the Intellicyt high throughput flow cytometer (HTFC, Intellicyt, Albuquerque, N. Mex.). MAb reactivities against each mutant clone were calculated relative to wild-type siglec-7 protein reactivity by subtracting the signal from mock-transfected controls, and normalizing to the signal from wild-type siglec-7-transfected controls.

Y50A = biological target: T2, Y50A (human, UniProt Q9Y286); assay: as above
T2 construct: clone of the siglec-7 mutation library; also called Siglec-7 Y50A
T2 sequence (Q9Y286 19-467 Y50A limits assumed): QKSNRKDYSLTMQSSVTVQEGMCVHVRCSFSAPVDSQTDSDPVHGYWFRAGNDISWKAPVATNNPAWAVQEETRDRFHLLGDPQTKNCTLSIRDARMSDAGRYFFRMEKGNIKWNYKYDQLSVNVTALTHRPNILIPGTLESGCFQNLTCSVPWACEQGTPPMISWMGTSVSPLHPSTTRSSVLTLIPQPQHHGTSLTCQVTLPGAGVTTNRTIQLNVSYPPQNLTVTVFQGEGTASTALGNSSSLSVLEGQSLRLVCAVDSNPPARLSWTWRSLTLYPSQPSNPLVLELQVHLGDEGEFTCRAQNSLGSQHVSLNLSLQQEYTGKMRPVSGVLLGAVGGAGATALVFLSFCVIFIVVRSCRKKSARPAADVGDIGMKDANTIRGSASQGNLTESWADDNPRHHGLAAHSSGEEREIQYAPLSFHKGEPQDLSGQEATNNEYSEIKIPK
Description: as §1, §2

W74A = biological target: T3, W74A (human, UniProt Q9Y286); assay: as above
T3 construct: clone of the siglec-7 mutation library; also called Siglec-7 W74A
T3 sequence (Q9Y286 19-467 W74A limits assumed): as the sequence (Q9Y286 19-467 Y50A limits assumed) above, with A32Y, W56A counted along it
Description: as §1, §2

T103A = biological target: T4, T103A (human, UniProt Q9Y286); assay: as above
T4 construct: clone of the siglec-7 mutation library; also called Siglec-7 T103A
T4 sequence (Q9Y286 19-467 T103A limits assumed): as the sequence (Q9Y286 19-467 Y50A limits assumed) above, with A32Y, T85A counted along it
Description: as §1, §2

F48A = biological target: T5, F48A (human, UniProt Q9Y286); assay: as above
T5 construct: clone of the siglec-7 mutation library; also called Siglec-7 F48A
T5 sequence (Q9Y286 19-467 F48A limits assumed): as the sequence (Q9Y286 19-467 Y50A limits assumed) above, with F30A, A32Y counted along it
Description: as §1, §2

R124A = biological target: T6, R124A (human, UniProt Q9Y286); assay: as above
T6 construct: clone of the siglec-7 mutation library; also called Siglec-7 R124A
T6 sequence (Q9Y286 19-467 R124A limits assumed): as the sequence (Q9Y286 19-467 Y50A limits assumed) above, with A32Y, R106A counted along it
Description: as §1, §2

T107A = biological target: T7, T107A (human, UniProt Q9Y286); assay: as above
T7 construct: clone of the siglec-7 mutation library; also called Siglec-7 T107A
T7 sequence (Q9Y286 19-467 T107A limits assumed): as the sequence (Q9Y286 19-467 Y50A limits assumed) above, with A32Y, T89A counted along it
Description: as §1, §2

M30A = biological target: T8, M30A (human, UniProt Q9Y286); assay: as above
T8 construct: clone of the siglec-7 mutation library; also called Siglec-7 M30A
T8 sequence (Q9Y286 19-467 M30A limits assumed): as the sequence (Q9Y286 19-467 Y50A limits assumed) above, with M12A, A32Y counted along it
Description: as §1, §2

M185A = biological target: T9, M185A (human, UniProt Q9Y286); assay: as above
T9 construct: clone of the siglec-7 mutation library; also called Siglec-7 M185A
T9 sequence (Q9Y286 19-467 M185A limits assumed): as the sequence (Q9Y286 19-467 Y50A limits assumed) above, with A32Y, M167A counted along it
Description: as §1, §2

S47A = biological target: T10, S47A (human, UniProt Q9Y286); assay: as above
T10 construct: clone of the siglec-7 mutation library; also called Siglec-7 S47A
T10 sequence (Q9Y286 19-467 S47A limits assumed): as the sequence (Q9Y286 19-467 Y50A limits assumed) above, with S29A, A32Y counted along it
Description: as §1, §2

R45A = biological target: T11, R45A (human, UniProt Q9Y286); assay: as above
T11 construct: clone of the siglec-7 mutation library; also called Siglec-7 R45A
T11 sequence (Q9Y286 19-467 R45A limits assumed): as the sequence (Q9Y286 19-467 Y50A limits assumed) above, with R27A, A32Y counted along it
Description: as §1, §2

K104A = biological target: T12, K104A (human, UniProt Q9Y286); assay: as above
T12 construct: clone of the siglec-7 mutation library; also called Siglec-7 K104A
T12 sequence (Q9Y286 19-467 K104A limits assumed): as the sequence (Q9Y286 19-467 Y50A limits assumed) above, with A32Y, K86A counted along it
Description: as §1, §2

I72A = biological target: T13, I72A (human, UniProt Q9Y286); assay: as above
T13 construct: clone of the siglec-7 mutation library; also called Siglec-7 I72A
T13 sequence (Q9Y286 19-467 I72A limits assumed): as the sequence (Q9Y286 19-467 Y50A limits assumed) above, with A32Y, I54A counted along it
Description: as §1, §2

V44A = biological target: T14, V44A (human, UniProt Q9Y286); assay: as above
T14 construct: clone of the siglec-7 mutation library; also called Siglec-7 V44A
T14 sequence (Q9Y286 19-467 V44A limits assumed): as the sequence (Q9Y286 19-467 Y50A limits assumed) above, with V26A, A32Y counted along it
Description: as §1, §2

[1] = biological target: human Siglec-7 expressed on human cells (primary monocytes, dendritic cells, macrophages, NK cells, microglia, U937 cells, human cells of humanized mice) (human) (UniProt Q9Y286); assay: cell-based or functional assay
Chain of human Siglec-7 expressed on human cells (primary monocytes, dendritic cells, macrophages, NK cells, microglia, U937 cells, human cells of humanized mice) (human) (Q9Y286 19-467): as the sequence (Q9Y286 19-467 Y50A limits assumed) above, with A32Y counted along it

[2] = biological target: human Siglec-7 expressed on human cells (primary monocytes, dendritic cells, macrophages, NK cells, microglia, U937 cells, human cells of humanized mice) (human) (UniProt Q9Y286); assay: FACS, human primary monocytes, 10 ug/ml mAb
[3] = biological target: T15, Siglec-7-Fc (plate immobilized) (human, UniProt Q9Y286 19-357, limits assumed); assay: RBC solid adhesion assay, plate-coated Siglec-7-Fc, antibody 0.5 or 1.0 ug/ml; % of RBC binding without antibody
T15 construct: also called Siglec-7-Fc protein; immobilized Siglec-7; not shown: Fc part
T15 sequence (Q9Y286 19-357 limits assumed): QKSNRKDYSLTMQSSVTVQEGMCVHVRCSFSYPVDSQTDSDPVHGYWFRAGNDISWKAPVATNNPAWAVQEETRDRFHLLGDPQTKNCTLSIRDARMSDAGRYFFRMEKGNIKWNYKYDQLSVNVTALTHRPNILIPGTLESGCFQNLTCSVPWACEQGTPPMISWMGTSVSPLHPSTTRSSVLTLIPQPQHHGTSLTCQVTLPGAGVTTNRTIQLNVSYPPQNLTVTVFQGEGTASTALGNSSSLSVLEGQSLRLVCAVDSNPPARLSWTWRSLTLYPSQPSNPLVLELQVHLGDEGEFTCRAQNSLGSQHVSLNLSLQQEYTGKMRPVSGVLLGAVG
Description: To determine which antibodies compete with ligand binding to Siglec-7, a red blood cell (RBC) solid adhesion assay was carried out in accordance with standard protocols (Kelm et al., Current Biology, 1994). Red blood cells are highly decorated with glycoproteins containing sialic acids: therefore, the ability of an antibody to block RBC binding to immobilized Siglec-7 can be used to determine ligand interference. Briefly, 5 μg/ml Siglec-7-Fc was coated overnight at RT in 96 well Immunolon plates, then washed with PBS, blocked for one hour with binding buffer (PBS containing %0.25 BSA 1 mM CaCl₂), Siglec-7 antibodies (0.5 μg/ml or 1.0 μg/ml) were bound for one hour at RT with gentle rocking. After removal of unbound antibody, red blood cells were added to each well at a concentration of 3.0×10⁶ cells per ml and incubated at RT for one hour. Unbound RBCs were then carefully washed off 3× with PBS, and water was added to each well for hypotonic lysis of bound RBCs. The plate was transferred to −80° C. for 10 minutes, followed by 37° C. for 15 minutes. Bound RBCs were detected by peroxidase activity, followed by 2N sulfuric acid to stop the reaction. Signal was detected at […]. Data was calculated as a percent of RBC binding to plate bound Siglec-7-Fc in the absence of antibody.

[4] = biological target: human Siglec-7 expressed on human cells (primary monocytes, dendritic cells, macrophages, NK cells, microglia, U937 cells, human cells of humanized mice) (human) (UniProt Q9Y286); assay: FACS, human primary dendritic cells, 10 ug/ml mAb
[5] = biological target: human Siglec-7 expressed on human cells (primary monocytes, dendritic cells, macrophages, NK cells, microglia, U937 cells, human cells of humanized mice) (human) (UniProt Q9Y286); assay: FACS, human primary macrophages, 10 ug/ml mAb
[6] = biological target: T15, Siglec-7-Fc (plate immobilized); assay: RBC solid adhesion assay, plate-coated Siglec-7-Fc; isotype control
[7] = biological target: human Siglec-7 expressed on human cells (primary monocytes, dendritic cells, macrophages, NK cells, microglia, U937 cells, human cells of humanized mice) (human) (UniProt Q9Y286); assay: FACS, human primary monocytes; isotype control (background)
[8] = biological target: human Siglec-7 expressed on human cells (primary monocytes, dendritic cells, macrophages, NK cells, microglia, U937 cells, human cells of humanized mice) (human) (UniProt Q9Y286); assay: FACS, human primary dendritic cells; isotype control (background)
[9] = biological target: human Siglec-7 expressed on human cells (primary monocytes, dendritic cells, macrophages, NK cells, microglia, U937 cells, human cells of humanized mice) (human) (UniProt Q9Y286); assay: FACS, human primary macrophages; isotype control (background)

T1 sequence (Q9Y286 19-467 N81A limits assumed): as the sequence (Q9Y286 19-467 Y50A limits assumed) above, with A32Y, N63A counted along it

Substance	Binding Reactivity (% WT) (N81A)	Binding Reactivity (% WT) (Y50A)	Binding Reactivity (% WT) (W74A)	Binding Reactivity (% WT) (T103A)	Binding Reactivity (% WT) (F48A)	Binding Reactivity (% WT) (R124A)	Binding Reactivity (% WT) (T107A)	Binding Reactivity (% WT) (M30A)	Binding Reactivity (% WT) (M185A)	Binding Reactivity (% WT) (S47A)	Binding Reactivity (% WT) (R45A)	Binding Reactivity (% WT) (K104A)	Binding Reactivity (% WT) (I72A)	Binding Reactivity (% WT) (V44A)	Percent Siglec-7 Surface Expression, DCs [1]	Percent Siglec-7 Surface Expression, Macrophages [1]	Percent Siglec-7 Surface Expression, Microglia [1]	Percent Siglec-7 Surface Expression, Monocytes [1]	Percent Siglec-7 Surface Expression, NK cells [1]	Percent Siglec-7 Surface Expression, U937 cells [1]	other results
S7.7 MAb (antibody)	5.6 % WT	142 % WT	83.7 % WT	106 % WT	158 % WT	115 % WT	129 % WT	100 % WT	74.3 % WT	118 % WT	126 % WT	115 % WT	101 % WT	89.3 % WT							
commercially available anti-Siglec-7 antibody Mab1138 (R&D Systems; Cat. No. MAB 1138)															96.7%	98.7%	80.2%	99.6%	103%	98.2%	% Positive [2]: 19.9%; MFI [2]: 175; Percent RBC Binding to Siglec-7 [3]: 97.1%; % Positive [4]: 73.9%; MFI [4]: 1450; % Positive [5]: 98.6%; MFI [5]: 4220
mIgG2b isotype control antibody															100%	100%	88.8%	96.2%	101%	99.3%	Percent RBC Binding to Siglec-7 [6]: 102%; % Positive [7]: 13.9%; MFI [7]: 128; % Positive [8]: 5%; MFI [8]: 130; % Positive [9]: 79.5%; MFI [9]: 2060
mIgG1 isotype control antibody															101%	100%	88.7%	96.2%	99.6%	102%	Percent RBC Binding to Siglec-7 [6]: 107%; % Positive [7]: 10.6%; MFI [7]: 115; % Positive [8]: 2.8%; MFI [8]: 83; % Positive [9]: 21.7%; MFI [9]: 368
6-434 MAb (antibody)	112 % WT	97.9 % WT	74.9 % WT	77.5 % WT	113 % WT	126 % WT	66.8 % WT	84.8 % WT	69.3 % WT	101 % WT	112 % WT	83.8 % WT	64.2 % WT	68 % WT							
